Data published in patent publication US20040115660A1 (published 2004).
Values belong to the binder of their own block, whether it stands above or below them.

Experiments:
mouse TIE2 = target: T1, mouse TIE2 (mouse, UniProt Q02858 23-1122); assay: co-immunoprecipitation from cotransfected 293T cells
T1 construct: whole, on cells

human EGFR = target: T2, human EGFR (human, UniProt P00533 25-1210); assay: as above
T2 construct: whole, on cells

mouse VEGFR2 = target: T3, mouse VEGFR2 (mouse, UniProt P35918 20-1345); assay: as above
T3 construct: whole, on cells
T3 sequence (P35918 20-1345): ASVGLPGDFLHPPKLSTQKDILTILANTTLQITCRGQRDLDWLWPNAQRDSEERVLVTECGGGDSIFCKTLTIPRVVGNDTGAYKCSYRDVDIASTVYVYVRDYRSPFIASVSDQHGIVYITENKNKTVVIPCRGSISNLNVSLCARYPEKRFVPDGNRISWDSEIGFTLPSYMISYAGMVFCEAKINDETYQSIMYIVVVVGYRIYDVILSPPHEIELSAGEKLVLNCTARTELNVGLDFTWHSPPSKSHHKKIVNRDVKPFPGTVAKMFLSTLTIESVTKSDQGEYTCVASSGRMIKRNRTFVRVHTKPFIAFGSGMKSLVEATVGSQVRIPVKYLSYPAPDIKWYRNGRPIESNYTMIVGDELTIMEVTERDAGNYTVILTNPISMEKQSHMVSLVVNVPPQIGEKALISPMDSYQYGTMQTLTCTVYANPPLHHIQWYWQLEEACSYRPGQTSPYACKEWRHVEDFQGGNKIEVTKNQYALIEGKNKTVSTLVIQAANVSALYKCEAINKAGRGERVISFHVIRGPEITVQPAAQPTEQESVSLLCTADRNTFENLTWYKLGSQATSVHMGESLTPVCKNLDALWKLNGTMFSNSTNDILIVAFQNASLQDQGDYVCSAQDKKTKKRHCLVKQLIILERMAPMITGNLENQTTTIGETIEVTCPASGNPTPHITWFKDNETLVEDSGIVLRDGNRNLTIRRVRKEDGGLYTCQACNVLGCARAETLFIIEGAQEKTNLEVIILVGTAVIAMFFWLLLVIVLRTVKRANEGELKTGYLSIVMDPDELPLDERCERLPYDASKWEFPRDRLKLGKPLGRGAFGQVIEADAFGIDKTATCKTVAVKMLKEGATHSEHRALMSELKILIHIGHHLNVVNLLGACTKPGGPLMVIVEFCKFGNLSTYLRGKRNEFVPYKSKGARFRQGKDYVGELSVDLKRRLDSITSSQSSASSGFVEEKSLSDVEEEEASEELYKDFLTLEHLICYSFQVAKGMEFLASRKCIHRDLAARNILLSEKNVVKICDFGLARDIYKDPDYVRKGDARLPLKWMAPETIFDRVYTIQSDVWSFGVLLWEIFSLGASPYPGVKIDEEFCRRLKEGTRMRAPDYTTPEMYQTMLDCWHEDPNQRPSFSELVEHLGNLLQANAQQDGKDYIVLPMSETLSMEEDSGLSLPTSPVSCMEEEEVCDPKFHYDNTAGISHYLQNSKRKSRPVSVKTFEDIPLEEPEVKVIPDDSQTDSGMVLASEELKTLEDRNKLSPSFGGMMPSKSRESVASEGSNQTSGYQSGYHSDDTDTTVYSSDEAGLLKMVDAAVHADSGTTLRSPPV

human EphB3 = target: T4, human EphB3 (human, UniProt P54753 34-998); assay: anti-Myc immunoprecipitation from 293T cells co-expressing RYK, AF-6 and EphB3 (FIG. 4b)
T4 construct: whole, on cells; also called Eph receptor B3
T4 sequence (looked up): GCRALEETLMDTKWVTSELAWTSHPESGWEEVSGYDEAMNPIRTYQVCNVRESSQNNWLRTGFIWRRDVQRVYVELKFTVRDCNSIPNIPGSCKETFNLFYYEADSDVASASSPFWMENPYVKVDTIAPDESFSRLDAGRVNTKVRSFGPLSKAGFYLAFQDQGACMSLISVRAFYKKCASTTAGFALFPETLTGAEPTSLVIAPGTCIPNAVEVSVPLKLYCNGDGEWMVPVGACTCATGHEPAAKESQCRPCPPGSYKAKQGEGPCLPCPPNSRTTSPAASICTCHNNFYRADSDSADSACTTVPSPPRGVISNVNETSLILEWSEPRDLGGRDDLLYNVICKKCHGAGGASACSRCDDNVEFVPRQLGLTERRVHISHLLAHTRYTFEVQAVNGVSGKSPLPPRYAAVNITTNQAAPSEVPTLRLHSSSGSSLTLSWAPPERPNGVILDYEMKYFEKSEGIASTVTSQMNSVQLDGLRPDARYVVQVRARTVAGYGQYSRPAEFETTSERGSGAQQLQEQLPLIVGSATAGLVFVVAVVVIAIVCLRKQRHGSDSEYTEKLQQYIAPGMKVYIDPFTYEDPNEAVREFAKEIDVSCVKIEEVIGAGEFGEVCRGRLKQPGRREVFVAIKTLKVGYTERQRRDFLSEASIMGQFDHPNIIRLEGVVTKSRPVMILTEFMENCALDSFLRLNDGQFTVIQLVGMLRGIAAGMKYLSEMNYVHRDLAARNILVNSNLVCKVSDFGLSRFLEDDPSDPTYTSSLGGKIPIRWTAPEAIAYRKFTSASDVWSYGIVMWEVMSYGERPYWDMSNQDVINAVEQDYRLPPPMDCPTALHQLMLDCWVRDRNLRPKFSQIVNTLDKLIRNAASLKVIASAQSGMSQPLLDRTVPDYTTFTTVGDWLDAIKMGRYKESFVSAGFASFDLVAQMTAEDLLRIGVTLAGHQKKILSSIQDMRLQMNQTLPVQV
Method: Lysis and subsequent analysis of complexes in triple-transfected cells was performed as previously described (13). The inventors prepared embryonic and tissue lysates by Dounce homogenization. The inventors cleared lysates of insoluble debris by centrifugation, and performed immunoprecipitation from cleared lysates containing equal amounts of total protein as assessed by the BCA assay (Pierce). Immune complexes were captured by incubation with protein A-, G- or L-conjugated beads. The mouse anti-RYK monoclonal antibody (IgMₓ isotype⁵) was covalently coupled to CNBr-activated Sepharose 4B (Pharmacia) at 1 mg/ml packed beads for immunoprecipitation or cross-linked it in solution using a goat anti-mouse IgM (Jackson Immunoresearch). The inventors used anti-FLAG monoclonal antibody M2 (Sigma) for immunoprecipitation as an affinity gel and for Western blotting in a biotinylated form. Anti-AF-6 monoclonal antibody (clone 35) was obtained from Transduction Laboratories and anti-Myc monoclonal antibody (clone 9E10) from Zymed Laboratories. Immune complexes were collected by centrifugation and washed three times in HNTG, eluted in 20-50 μL of 2×SDS-PAGE sample buffer containing 10% v/v 2-mercaptoethanol, fractionated by SDS-PAGE and electroblotted to Immobilon P (Millipore) for Western analysis. […]

endogenous mouse AF-6 = target: T5, endogenous mouse AF-6 (mouse, UniProt Q9QZQ1 1-1820, limits assumed); assay: co-immunoprecipitation from mouse tissue lysates, both directions (FIG. 4c)
T5 construct: also called Afadin
T5 sequence (Q9QZQ1 whole entry): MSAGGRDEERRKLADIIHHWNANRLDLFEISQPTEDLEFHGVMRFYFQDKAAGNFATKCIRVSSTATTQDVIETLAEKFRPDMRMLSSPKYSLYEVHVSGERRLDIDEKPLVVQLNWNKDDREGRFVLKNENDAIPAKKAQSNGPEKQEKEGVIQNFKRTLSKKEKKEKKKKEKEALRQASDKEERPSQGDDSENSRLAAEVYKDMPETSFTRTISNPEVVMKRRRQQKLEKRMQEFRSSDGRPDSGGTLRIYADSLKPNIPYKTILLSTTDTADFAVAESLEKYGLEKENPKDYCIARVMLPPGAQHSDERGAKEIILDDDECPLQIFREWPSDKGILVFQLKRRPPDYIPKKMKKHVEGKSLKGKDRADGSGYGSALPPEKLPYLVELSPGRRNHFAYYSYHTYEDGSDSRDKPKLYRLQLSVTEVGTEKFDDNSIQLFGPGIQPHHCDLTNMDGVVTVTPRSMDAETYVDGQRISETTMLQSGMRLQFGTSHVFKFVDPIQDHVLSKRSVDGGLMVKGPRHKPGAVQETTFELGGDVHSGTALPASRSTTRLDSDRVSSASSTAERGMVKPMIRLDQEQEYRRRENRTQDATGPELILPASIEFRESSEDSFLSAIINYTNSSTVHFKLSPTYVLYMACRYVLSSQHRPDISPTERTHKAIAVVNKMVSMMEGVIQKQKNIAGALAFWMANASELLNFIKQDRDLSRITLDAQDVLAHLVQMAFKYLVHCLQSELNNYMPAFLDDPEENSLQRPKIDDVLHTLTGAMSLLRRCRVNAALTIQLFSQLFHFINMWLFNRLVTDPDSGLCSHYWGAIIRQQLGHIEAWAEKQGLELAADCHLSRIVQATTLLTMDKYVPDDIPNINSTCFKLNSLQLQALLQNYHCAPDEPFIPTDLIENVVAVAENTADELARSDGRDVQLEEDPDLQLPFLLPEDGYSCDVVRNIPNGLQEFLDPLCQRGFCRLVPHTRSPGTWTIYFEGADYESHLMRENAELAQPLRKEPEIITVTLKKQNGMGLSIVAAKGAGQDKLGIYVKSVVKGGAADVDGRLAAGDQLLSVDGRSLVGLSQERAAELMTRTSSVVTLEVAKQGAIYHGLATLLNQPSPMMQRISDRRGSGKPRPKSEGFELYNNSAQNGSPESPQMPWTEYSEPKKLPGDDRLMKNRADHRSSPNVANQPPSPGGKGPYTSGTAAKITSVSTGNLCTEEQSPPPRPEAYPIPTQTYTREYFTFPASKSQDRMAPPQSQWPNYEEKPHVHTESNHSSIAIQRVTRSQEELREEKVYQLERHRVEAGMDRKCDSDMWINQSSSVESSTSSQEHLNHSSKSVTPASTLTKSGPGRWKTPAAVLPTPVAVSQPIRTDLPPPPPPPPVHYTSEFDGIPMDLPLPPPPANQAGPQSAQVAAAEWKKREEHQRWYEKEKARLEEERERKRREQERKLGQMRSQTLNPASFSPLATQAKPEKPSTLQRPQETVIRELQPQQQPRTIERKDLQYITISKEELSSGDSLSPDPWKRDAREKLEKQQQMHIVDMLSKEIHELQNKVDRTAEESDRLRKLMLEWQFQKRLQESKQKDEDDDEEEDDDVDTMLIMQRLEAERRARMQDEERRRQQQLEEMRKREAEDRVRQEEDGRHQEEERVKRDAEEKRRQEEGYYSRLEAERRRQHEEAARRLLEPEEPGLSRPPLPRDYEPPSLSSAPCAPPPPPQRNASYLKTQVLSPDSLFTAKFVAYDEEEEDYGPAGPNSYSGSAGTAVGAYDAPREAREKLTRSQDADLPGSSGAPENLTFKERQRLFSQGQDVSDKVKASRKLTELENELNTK

T1 sequence (Q02858 23-1122): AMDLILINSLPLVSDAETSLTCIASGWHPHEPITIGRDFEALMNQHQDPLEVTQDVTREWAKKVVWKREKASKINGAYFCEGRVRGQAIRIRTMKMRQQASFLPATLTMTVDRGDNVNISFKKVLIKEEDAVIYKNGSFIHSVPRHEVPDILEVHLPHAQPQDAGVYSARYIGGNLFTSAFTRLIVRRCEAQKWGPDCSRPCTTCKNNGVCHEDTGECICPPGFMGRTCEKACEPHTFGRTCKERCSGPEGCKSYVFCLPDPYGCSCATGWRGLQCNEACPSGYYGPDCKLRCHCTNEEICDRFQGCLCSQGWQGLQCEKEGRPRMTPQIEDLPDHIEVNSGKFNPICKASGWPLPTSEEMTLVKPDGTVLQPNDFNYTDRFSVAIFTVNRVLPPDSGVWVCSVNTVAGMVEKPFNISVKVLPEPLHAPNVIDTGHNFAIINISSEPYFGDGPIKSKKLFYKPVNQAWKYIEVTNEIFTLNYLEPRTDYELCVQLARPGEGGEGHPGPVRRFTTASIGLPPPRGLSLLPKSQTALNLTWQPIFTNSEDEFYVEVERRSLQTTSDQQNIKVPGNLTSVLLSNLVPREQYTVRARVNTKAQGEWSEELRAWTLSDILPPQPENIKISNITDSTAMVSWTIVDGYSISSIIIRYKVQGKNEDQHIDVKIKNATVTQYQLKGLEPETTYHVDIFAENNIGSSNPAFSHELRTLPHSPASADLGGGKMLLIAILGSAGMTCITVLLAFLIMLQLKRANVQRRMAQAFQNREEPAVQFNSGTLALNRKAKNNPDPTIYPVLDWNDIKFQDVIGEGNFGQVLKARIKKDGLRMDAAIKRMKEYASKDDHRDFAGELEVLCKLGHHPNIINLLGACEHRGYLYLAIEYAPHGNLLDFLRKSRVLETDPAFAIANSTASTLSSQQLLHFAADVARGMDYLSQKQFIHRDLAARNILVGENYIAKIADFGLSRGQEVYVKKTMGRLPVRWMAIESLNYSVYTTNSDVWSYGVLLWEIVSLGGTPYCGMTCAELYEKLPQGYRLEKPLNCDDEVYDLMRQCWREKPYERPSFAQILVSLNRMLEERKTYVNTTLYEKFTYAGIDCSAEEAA

binding result (mouse TIE2): no binding
binding result (human EGFR): no binding
binding result (mouse VEGFR2): no binding
binding result (human EphB3): binds
B1: Myc2.RYK (double Myc epitope-tagged mouse RYK) (receptor, UniProt Q01887 35-594, looked up, not shown: small tags and cut ends)
chain: RSPALAAAPAGPSVSLYLSEDEVRRLLGLDAELYYVRNDLISHYALSFNLLVPSETNFLHFTWHAKSKVEYKLGFQVDNFVAMGMPQVNISAQGEVPRTLSVFRVELSCTGKVDSEVMILMQLNLTVNSSKNFTVLNFKRRKMCYKKLEEVKTSALDKNTSRTIYDPVHAAPTTSTRVFYISVGVCCAVIFLVAIILAVLHLHSMKRIELDDSISASSSSQGLSQPSTQTTQYLRADTPNNATPITSSSGYPTLRIEKNDLRSVTLLEAKAKVKDIAISRERITLKDVLQEGTFGRIFHGILVDEKDPNKEKQTFVKTVKDQASEVQVTMMLTESCKLRGLHHRNLLPITHVCIEEGEKPMVVLPYMNWGNLKLFLRQCKLVEANNPQAISQQDLVHMAIQIACGMSYLARREVIHRDLAARNCVIDDTLQVKITDNALSRDLFPMDYHCLGDNENRPVRWMALESLVNNEFSSASDVWAFGVTLWELMTLGQTPYVDIDPFEMAAYLKDGYRIAQPINCPDELFAVMACCWALDPEERPKFQQLVQCLTEFHAALGAYV
notes: mature; also called wild-type RYK

binding result (endogenous mouse AF-6): binds
B2: endogenous mouse RYK (receptor, UniProt Q01887 35-594, looked up)
chain: B1 chain
notes: also called RYK beta subunit
